Measured values reported in patent publication US20020115631A1 (IDUN PHARMACEUTICALS, published 2002).
Values belong to the binder of their own block, whether it stands above or below them.

What was measured:
[1] = molecular target: T1, GST-Bcl-xL fusion protein (pGEX 4T1, N-terminal glutathione-S-transferase tag) (human, UniProt Q07817 1-212); assay: ELISA, 6HBad coated on the plate, GST fusion in solution, anti-GST detection
T1 construct: no residue range is printed; also called pGEX-Bcl-XL

[2] = molecular target: T2, GST-Bax fusion protein (pGEX 4T1, N-terminal glutathione-S-transferase tag) (human, UniProt Q07812 1-171); assay: as above
T2 construct: no residue range is printed; also called pGEX Bax
T2 sequence (Q07812 1-171): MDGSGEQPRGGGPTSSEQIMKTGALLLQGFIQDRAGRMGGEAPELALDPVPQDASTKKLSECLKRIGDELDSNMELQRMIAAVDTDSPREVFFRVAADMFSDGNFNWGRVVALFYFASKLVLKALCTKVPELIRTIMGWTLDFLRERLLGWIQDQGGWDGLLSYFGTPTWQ

[3] = molecular target: T3, full length human Bad expressed as a fusion protein with the DNA-binding protein LexA (bait, vector pEGE202) (human, UniProt P0A7C2 1-202 (Escherichia coli entry)); assay: yeast two-hybrid, beta-galactosidase reporter (LexA-Bad bait, B42 prey)
T3 construct: Expressed in yeast EGY191 for the two-hybrid assay; also called Bad-bait; LexA-Bad
T3 sequence: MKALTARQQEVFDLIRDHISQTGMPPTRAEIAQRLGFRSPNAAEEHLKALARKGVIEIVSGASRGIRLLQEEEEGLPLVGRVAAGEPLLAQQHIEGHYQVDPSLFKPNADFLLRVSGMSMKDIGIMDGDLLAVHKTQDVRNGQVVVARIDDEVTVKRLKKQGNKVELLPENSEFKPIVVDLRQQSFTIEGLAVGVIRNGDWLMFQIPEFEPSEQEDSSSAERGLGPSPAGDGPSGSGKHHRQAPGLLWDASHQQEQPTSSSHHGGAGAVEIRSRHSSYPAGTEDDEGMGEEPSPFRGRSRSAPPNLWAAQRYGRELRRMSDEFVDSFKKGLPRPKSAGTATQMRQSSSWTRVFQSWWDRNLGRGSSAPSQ
Text: Briefly, the full length human Bad sequence was subcloned into the yeast 2-hybrid vector pEGE202, or “bait-vector” to express Bad as a fusion protein wish the DNA-binding protein LexA (Ruden et al., Nature (1991) 350:426-430). Human Bcl-2, Bcl-X, Bax, Bak and Bad were similarly cloned into the yeast 2-hybrid vector pJG4-5, or “prey-vector” to expressed these Bcl-2 family members as fusion proteins with the transcriptional activator B42 (Gyuris et al., Cell (1993) 75:791-803). Briefly, the full length human Bad sequence was amplified by PCR and subcloned into the bait-vector. For the PCR reaction we used the following primers: 5′ATCAGTGAATTCACTATGTTCCAGATCCCA GAC3′ (SEQ ID NO: 4) and 5′ ATCGATCTCGAGTCACTGGGAGGGGGCGGA GCT3′ (SEQ ID NO: 5). The resultant PCR fragment was digested with EcoRI and Xho I and then subcloned into the bait vector. The human Bad sequence was also PCR amplified and subcloned into the prey-vector using the same primers and subcloning strategy as described above. […]
To determine if human Bad binds to any of the above Bcl-2 family members, the Bad-bait plasmid was cotransformed with every prey plasmid and the reporter plasmid p18-34 into the yeast strain EGY191. […] The reaction was stopped with 0.4 M NaOH and the plate was read at an OD 420 nm.

T1 sequence (Q07817 1-212): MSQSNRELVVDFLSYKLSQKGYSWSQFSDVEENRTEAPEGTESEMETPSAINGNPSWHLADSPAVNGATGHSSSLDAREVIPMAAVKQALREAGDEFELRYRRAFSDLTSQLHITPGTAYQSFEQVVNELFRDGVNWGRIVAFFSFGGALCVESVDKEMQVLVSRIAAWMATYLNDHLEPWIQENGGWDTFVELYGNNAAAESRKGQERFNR

- binding result [1]: binds
- binding result [2]: no binding
B1: 6HBad fusion protein (full length human Bad with N-terminal six residue Histidine tag, construct pET-15 6H Bad) (other, not shown: small tags and cut ends)
chain: MFQIPEFEPSEQEDSSSAERGLGPSPAGDGPSGSGKHHRQAPGLLWDASHQQEQPTSSSHHGGAGAVEIRSRHSSYPAGTEDDEGMGEEPSPFRGRSRSAPPNLWAAQRYGRELRRMSDEFVDSFKKGLPRPKSAGTATQMRQSSSWTRVFQSWWDRNLGRGSSAPSQ
notes: Made in E. coli BL21 plysS, purified on nickel, coated on ELISA plates at 4 ug/ml; also called human 6HBad

- binding result [3]: no binding
B2: human Bad expressed as a fusion protein with the transcriptional activator B42 (prey, vector pJG4-5) (other, not shown: large carriers)
chain: B1 chain
notes: also called itself; B42-Bad

- binding result [3]: no binding
B3: human Bak expressed as a fusion protein with the transcriptional activator B42 (prey, vector pJG4-5) (other, UniProt Q16611 1-187, looked up, not shown: large carriers)
chain: MASGQGPGPPRQECGEPALPSASEEQVAQDTEEVFRSYVFYRHQQEQEAEGVAAPADPEMVTLPLQPSSTMGQVGRQLAIIGDDINRRYDSEFQTMLQHLQPTAENAYEYFTKIATSLFESGINWGRVVALLGFGYRLALHVYQHGLTGFLGQVTRFVVDFMLHHCIARWIAQRGGWVAALNLGNGP
notes: no residue range is printed; also called B42-Bak
